From publication PMC4884500 (DNA repair, 2016)
Each block holds one molecule with its values, some of them ahead of it.

Assays:
[1] = biological target: Full-length MmRAD51D (yeast two-hybrid fusion) (mouse) (UniProt O55230); test: two-hybrid
[2] = biological target: T1, Full-length MmRAD51D (yeast two-hybrid fusion) (mouse, UniProt O55230 1-329); test: two-hybrid
T1 sequence (looked up): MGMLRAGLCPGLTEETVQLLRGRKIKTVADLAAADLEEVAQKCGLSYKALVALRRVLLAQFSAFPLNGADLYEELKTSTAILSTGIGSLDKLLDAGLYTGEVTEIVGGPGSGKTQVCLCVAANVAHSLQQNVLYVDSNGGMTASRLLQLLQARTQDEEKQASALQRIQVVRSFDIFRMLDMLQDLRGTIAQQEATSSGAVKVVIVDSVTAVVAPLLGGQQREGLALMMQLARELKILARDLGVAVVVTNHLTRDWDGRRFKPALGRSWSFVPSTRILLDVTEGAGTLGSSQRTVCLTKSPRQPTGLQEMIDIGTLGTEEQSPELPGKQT

fold decrease in the level of interaction against full-length RNF138 [1]: 8 fold
Molecule: MmRnf138-Δ5 (RNF138 splice variant with a deletion of exon 5, yeast two-hybrid fusion) (natural protein)

fold decrease in the level of interaction against full-length RNF138 [1]: 3 fold
Molecule: MmRnf138-Δ7 (RNF138 splice variant with a deletion of exon 7, yeast two-hybrid fusion) (natural protein)

β-galactosidase level relative to the DBD-RAD51D:AD-RAD51C positive control [2]: 79%
B1: RNF138 (yeast two-hybrid fusion) (natural protein, mouse, UniProt Q9CQE0-1 1-245, looked up)
chain: MSEELSAATSYTEDDFYCPVCQEVLKTPVRTAACQHVFCRKCFLTAMRESGIHCPLCRGSVTRRERACPERALDLENIMRRFSGSCRCCSKKIKFYRMRHHYKSCKKYQDEYGVSSVIPNFKISQDSVRSSNRSETSASDNTETYQEDTSSSGHPTFKCPLCQESNFTRQRLLDHCNSNHLFQIVPVTCPICVSLPWGDPSQITRNFVSHLNQRHQFDYGEFVNLQLDEETQYQTAVEESFQVNM
